# Measured values published in a protein production outcome set (Wang et al. 2014).
# Experiment: label from the status in PepcDB records
# 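Note: failed if final PepcDB status was selected cloned or expressed and not failed if soluble or beyond.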
row,Sequence,protein production
1,MIDKQSGIPIYIQIQSEIKKKMEDGVWKVGTSIPAERQLAEMFHVSRMTVRQAIQGLVDDNILQRRVGAGTFIAEKKLTERLEAVTSFTNLMLQEGKVPSTRIVSYGIRPASTQEQEALQLPENSNVMKIERIRYGDRVPILYEVAAIPEKIASLLTKEDIMDSLYKAIELKLGQPIGEAEQIMEASLVSEKIAPYLDVKLGSPVMKLRQITTLEDGRPFEFTRSQYVGSRFQFVARIKQ,failed
2,MIDLILAIIILVSALLGLLRGFVSIIISTSSWLLASWATFEFGNTASHWLASHGIPSTTEILCGYALVFIGTLMTVGAVGMLMHAGINAIRLNNIDRIFGFALGTFRGGFIACLLLLMIGYTPLAHEPVWRNSRLVPLLQPGVSWMRAKLPQRSSPLTPQRLPLTRPMINRMGSINISVSDDNQLISRVFPPLSSNEHDKSHYVPVQPIIYKPTTTY,failed
3,MIDPLASPGSAPLIVIAGPTASGKSALALRVARRFNGVVINADSMQVYRDLRILSARPSVEDEAAAPHALYGVLDGAEVCSVGRWLALADGAVAAARAAGRLPILCGGTGLYLKAALEGLASVPEVAPEVRAEARELLAALGPAALHAKLAELDRAMAERLRPSDAQRIARAYEVVRGTGRSLMDWWSDPVATPALPGRPLLLVIDPPRAAQRAACDARLLAMVAAGALDELALLLARRLDPALPVMRAVGVPELARTLRGEVGLAEAVERAQGATRRYAKRQGTWIRTQLRPDRVLSESLVTQLSESQLTDIDNFLYAFLLTGAS,failed
4,MIDRNIVNLRLFRIYSKRYLKFDFVAAIVVFLVAIPLCLGIALASGAPLFSGILSGIIGGIVVGIFSGSQVSVSGPAAGMAAVVLAAISQLGDFNTFLLALTIAGLLQMIIGALRAGFVADYVPSNVVQGLLCSIGILLIIKQLPLAFTLSSDFDELKTHLLETTEGFTVSPLLALSQHINEGALIITTLSLAILIYFDITKNKILKEIPAPILVVLAGILLNELFIWTNSSLAQNSPQLVNIPDTNGFFQFFSHLEYPDWSAWTNPKVYLYALVICIVASLETLLNLKASERLDKKRRHSPTNQELVAQGLGNITSGLVGGIPVTSVIVRTSINIHAGSKTKFSAVLHGFFILFAVMLIPGALNKIPLSSLAAILIYTGYKLNKPAIYINIFSQGSDRFIPFIVTVISIIAFNLLAGILIGLAISLFYILKSNSQARIDIIKEIYPNGSTYRLMLPQQMTFLNKAALVAELDTLPRRSQLIIDARHSQYIDKEILDLFNELKEELAGSKQISVNFTGFQEHYKIHNYIDFITVTTYDVQTNLTPAQVLNILLEGNQRFLSDNRIHRSNQIDIKYTAKTQHPIAVVLACIDSRVPVETIFDMSFGDLFCVRIAGNVINDDILASIEYACNVVGAKLIMVLGHTRCGAIQSACDGIEKGHITQLLSKIKPAVNAEKETTTERNGKNQTFVNHVTELNVANTLQNIYKKSDILRTMIDSNEIGMVGAIYDVSSGKVSCKTYTEELSTLDGDENKLLAQKFETILLEAKAS,failed
5,MIDSLLDEMTLEEQVSVLSGADFWTTVPVERLGIPKIKVTDGPNGARGGGSLVGGVKATCYPVAIALGATWNPALIEAMGVSLAGQVKSKGASVLLAPTVNIHRSGLNGRNFECYSEDPMLTAALAVAYIKGVQSQGVAATIKHFAGNESEIERQTMSSDIDERALREIYLLPFEQAVKKAGVMAVMSSYNRLNGTYTSEHNWLLTDVLREQWGFDGIVMSDWFGSHSTSESVNAGLDLEMPGPTRDRGEKLVQAVRDGTVRPETVREAAGRILTLLERVGAFSSAPDLSEHAEDLPADRALIRKIGAEGAVLLKNDNILPLEKASLKRVAVIGPNAAVARVMGGGSAQINAHYTISPLEGIRAALQGTADVQHSVACGNSRLVKLFSQPVTVEYFKGVNCQGTPVAAEAVQTGEFFWFELPSPDLSLTDFSVRFTGTFTPQEDGPHLLGMTNSGLAKLYVDGELVVDGYTDWKRGENFFGTANDEIRHSVEMKAGRSYAIKVEYLSPPPEEYGIHITAIRFGIERILGEDAMVEAVECAKGADVALLFVGREGQWDTEGLDLPDMRLPGRQEELIERVSAVNPNCIVVLQTGGPVEMPWLEKVKAVLQVWYPGQELGNAVADMLFGDQEPGGRLPQTFPKQLSDNSAITNDPSIYPGMDGHVRYEEGVFVGYRHHDSRTIEPLFPFGFGLNYTSFEWDEPKASASEMTASGVTVSVRVSNTGKRAGSDVVQLYVEAPVSGVERPLKELRAFAKIALEPGESGEVTLEINPRDLSYYDVDAAAFRAPAGDYRLLIGAHAQDIRSAITIVNPQEWLGAVGDRTI,failed
6,MIDTHIHSDTRGLEDLELMAMCLDGVITLAHDPFEMKNIKVWEAHVEKLLINELERAKKVGLNLFICVGMHPRAIPPEIDEALDKIKSYINYNSRVVGIGEIGLEKATKEEKEVFIKQLLLAEELNMPAVVHTPRRNKEEVTKIILDEISTLNLKNRDIVIEHCNKETTKWVLDEEFYVGLTIQPGKLTPLEAVEIVKEYKDFADKILLNSDCSSNASDVLAVPRTVLKMKINGIEKDVIYKVAHKNAVNLFGLDI,failed
7,MIDTSIFQDKTAVYYTLGCKLNFSETSTIGKVLREAGVRTVRKGEKADICVVNTCSVTEVADKKCRQAIHRLVKQHPGAFVVVTGCYAQLKPDAVAKIEGVDVVLGAEQKKDLLQYLGDLRKHESGEAHTSALKDIRSFAPSCSRGDRTRFFLKVQDGCDYYCSYCTIPFARGRSRNGSIASLVEQARQAAAEGGKEIVLTGVNIGDFGKSTGETFFDLVKALDDVECIERYRISSIEPNLLTDEIIEFVSRSKRFMPHFHIPLQSGSDEVLKLMRRRYDTALFASKVKRIKEVMPDAFIGVDVIVGTRGETEEYFEQAYRFIQSLDVTQLHVFSYSERPGTQALKIEHVVSSEEKHRRSRLLLDLSDEKTRAFYARHIGQTMPVLLERSKPGTPMHGFTPNYIRVEVPHDDALDNQVIPVRMGDFNEEGTALSGAFGDK,failed
8,MIEEERNNYSVFHGLWTLASRELKKWYKAPVILLLSLIQPIFWIGIFGKAMNLGSIFTETTFNIPGLTIPKQVLDQIGLEILKQTFGTTDYFSFLAAGMLSFIVLFTSMQSGMSIVWDRRLGVLDRILTTPVPRGNIIIGKVLSAVIRSLVQATIVLVVAVLLGMTFAPEINPLDFLGVYAALFLMSFGLSSLFLMLALRATSWESQMAIMNLLNLPLLFTSNAFYPVKSMPYWLKPVAYINPLTYSNGVARGMLLGISTNLAIDFLYLGLFAIILSTIGIVLSWKYLSK,failed
9,MIEESVMLRQHNLRLRKYDYVLGRLFVALPIGGLVVAVLLLFADWRVGRFELAMCLAMYLFTMMGIEVGFHRCFAHRAFKAGTGLQWVLAVAGSMGGHGPLIWWVTTHRRHHRFVDTDQDPHTPNKDLRGPWRNFKSFLYGYVGWTMDTDVKLQEGWQRYGVDLYKNSILFKVHARFALIALLGLLLPTVAGALFHRTAEGALLGLLWGGLVPICLTQHLFWMINAFGHRIGAKPFSGRIVGDSRNCWWLALPTFGQGWHNNHHADPGCATTRKTWWQLDPGAWLIRLFERLGWASAVKWK,failed
10,MIEFTALDDLSLLRESVSLECKLAQGRDGKGALPDDFWPTYSAMANTDGGIVILGVRERKGQFEVAGIENPDKLRTELFNHLNNRQKVSVNLLRDEDVRAWPVEGKTLLVVEIPRARRQQRPVYLRGNPLGGHTYRRLHEGDRPLPDE,failed
11,MIEGIIEEIRTNGSFLITTHENPDGDAVGSSLALAGYLRRLGKDVTIHFCDPVPDLYAFLPLAEEVTRTVPDRDYDICFVLDVGEFRRAGKQIAECKRIKKFINIDHHLTSDNFGFINYIDPKAAATGILVHRIITGAGDVVGYETALCLYTAIITDTGSFRYSNANPEAFAIAGELVSTGINTWSIAEKLYESQPRERLELLALALSTLTISPRGEYASITVTLDMYNKTGASAELTDGFVNYPRSIRGVEVSVFFREINPGLFKVGFRSKGKIDVSRIAAAFGGGGHHNAAGATMNGSLEGIKATLFSHLESTLLEHHHHHH,not failed
12,MIEGKTLVVNPFIGGSAKNITDEQYISILKKIKEKMPDLNIIITSYTTDEERTEKLCKDIGKDKIFAFSNGASILNTASIIDRADVYFGASTGPTHIAGALGKKIVAIYPHKKTQSPTRWGVLGNSNVRYIIPDENNPNEDYKLEHHHHHH,failed
13,MIEHIIDIIIVLLAKLGYAGTFFGMLFESACIPIPSEIVLPFGGYLSSSSAPQGHTLNLVLVIISATLGGTVGSILAYTIGAKGGRILVYKYASKLHLSKEKIEKSEAVFDKYGDKIIFLSRLLPIIRTFISLPAGIAKMDFTKFTIYTLVGSAIWSTLLVYAGFVMGKNWESIRSYFHIADYLVAGAIILFIVYRIIVYIKKKTKK,failed
14,MIEKIIDLSVKNKLLTTLVTLLIFLASLWAIKSVRLDALPDLSPAQVVVQITYPNQSPKIVQEQVTYPLVSTFMSIANIDTVRGISSYESGLIYIIFKDGVNLYWARDRVLEQLNRVSNLPKDAKVEIGSDSTSIGWAYQYALSSDSKNLSDLKVLQDFYYRYALLGVDGVSEVASVGGFVKDYEVTLQNDSLIRYNLSLEQVANAIKNSNNDTGGGVILENGFEKIIRSHGYIQSLKDLEEIVVKKEGAIPLKIKDIASVRLTPKPRRGAANLNGDKEVVGGIVMVRYHADTYKVLKAIKEKIATLQASNPDVKITSVYDRSELIEKGIDNLIHTLIEESVIVLVIIAIFLLHFRSALVVIITLPLSVCISFLLMRYFNIEASIMSLGGIAIAIGAMVDAAIVMVENAHKHLQHIDVKDNAQRVNGIIEGVKHVGGAIFFALMIIVVSFLPIFALTGQEEKLFAPLAYTKTFAMLVGALLSITMVPILMVWLIKGRILEESKNPINAFFMKIYGVSLNVVLKFRYAFLIASVLGLGGLYVAYKKLNWEFIPQINEGVVMYMPVTINGVSIDTALEYLKKSNSAIKRLDFVKQVFGKVGRANTSTDAAGLSMIETYIELKPQNEWKEKLSYKEVRDKLEKTLQLKGLTNSWTYPIRGRTDMLLTGIRTPLGIKLYGNDTDKLQELAILMEQQLKTLKESLSVFAERSNNGYYITLDLNDENLARYGINKKAVLDAIKFALGGATLTTMIKGVENYPISLRLEDTERNTIEKLKNLYIKTAYNYMPLRELARIYYDNSPAVLKSEKGLNVNFIYIVPQNGISSDAYRQLAQKALEKIQLPNGYYYEFSGESQYLEEAFKTLQYIVPVSVFIIFILIVFALKNLTNSLLCFFTLPFAFLGGLIFMNLMGFNMSVAALVGFLALLGVASETAIVMIIYLEDAFQKFIKTPLKEQNSTTLKEAIMHGAVLRVRPKLMTFFSILASLIPIMYSHGTGSEIMKSIAAPMLGGMISSVVLTLFIIPTAYFVIKNAGIKSNQT,failed
15,MIEKKKNRSKLKREAILAAAKKAYQDDGVQNTSMDKLASLAQVSKRTVYNHFSSKEALVMELLSDLWQNSMADIDIQFSENVSIQDQLERLLLAELNVIGAQSYLDLAKVAFGHFFYKPDELQLQVEKMAEQETALSRWLQLMMDTKKLTIEDKHKAGVQLHSLLKGSAFWPQLVGMRAVLSSEEKEQLVTETADMFLSRYLKR,not failed
16,MIELEVVIRTVASFGLLLIAERILGKQTISQMTIFDFIAAITLGAIAAGLAYNTSIKPHNMAISFSIFVLTIFLISFLSIKNRKLRKFFAGDPTVLIQNGKILESNMRKMRYTLDYLNQQLREKEIFNIEEVLFAILETNGQLTVLRKPQFRHVTKQDLMIAVNQEQRLPIELIMDGEIIENNLKQNRLTESWLLEELRKRDIKVKETVYAVLLGNGDIYVDQYKDHISVPMDKE,failed
17,MIELRNELPGGEVHAAWHLRYAGHDFFVKCDEREMLRGFTAEADQLELLSRSKTVVVPKVWAVGSDRDYSFLVMDYLSPRPLDAHNAFILGQQLARLHQWSDQPQFGLDFDNALSTTPQPNTWQRRWSTFFAEQRIGWQLELAAEKGITFGNIDAIVEHVQQRLASHQPQPSLLHGDLWSANCALGPDGPYIFDPACYWGDRECDLAMLPLHTDQPPQIYDGYQSVSPLPLDFLDRQPIYQLYTLLNRARLFGGQHLATAQKAMDRLLAVLEHHHHHH,failed
18,MIEQPSPKVYDELLSIWEEAVRSTHHFLTEADIQFYKPLIRHEYLAAVRLYIIREDSGTIAAFMGLSNDCIEMLFVRPNAHGHGYGSRLVEFAIRKKRIYKVDVNEQNAAALGFYLHMGFETTGRDALDATGKPFPILHLQIPPIRLRK,failed
